Assay [1] deals with T1, recombinant CD22 extracellular domain.
T1 construct: Kept apart from m18, which is cell-surface CD22; also called CD22 (analyte in the BIAcore runs); CD22 ECD
Put plainly: The sheet does not state the method. The column 'KD (nM)' stands beside the confocal data, and the target form is taken from FIGURE 18. FIGURE 18 prints 0.30 for this clone. How it is done: (§1) BIAcore 3000, GE Healthcare was used to determine binding curves and kinetic parameters. An anti-human Fc (1.8 mg/ml) was diluted to a concentration of 50 ug/ml in NaOAc buffer (10 mM, pH 4.8) and coupled to the carboxymethylated dextran matrix of a CM-5 sensor chip using the manufacturer's amine-coupling chemistry as described in the BIAcore systems manual. Using the surface preparation wizard aiming for 10000RU, the carboxyl groups on the sensor surfaces were first activated with NHS/EDC followed by the addition of the anti-human Fc. The remaining activated groups were blocked by the injection of 1M ethanolamine. Each of the flow cells was coupled individually. Employing these conditions, the four flow cell surfaces containing 7554-9571 RU of anti-human Fc were prepared. In preliminary experiments, it was determine that three injections (15 ul at 30 ul/min) 100 mM H₃PO₄/0.05% CHAPS would efficiently remove the bound immunoglobulin and preserve the binding capacity of the immobilized anti-human Fc.
(§2) Experiments were performed on the BIAcore 3000 at 25° C. and a flow rate of 30 ul/min. […] Using the 1:1 model in BIAevaluation 4.1, both a local fit and global fit was done for both dissociation (kd, [s−1] and association (ka, [M⁻¹s⁻¹]) and the dissociation constant (KD, [M]) calculated (kd/ka).
Target sequence in this assay (chain, as listed by the source limits assumed): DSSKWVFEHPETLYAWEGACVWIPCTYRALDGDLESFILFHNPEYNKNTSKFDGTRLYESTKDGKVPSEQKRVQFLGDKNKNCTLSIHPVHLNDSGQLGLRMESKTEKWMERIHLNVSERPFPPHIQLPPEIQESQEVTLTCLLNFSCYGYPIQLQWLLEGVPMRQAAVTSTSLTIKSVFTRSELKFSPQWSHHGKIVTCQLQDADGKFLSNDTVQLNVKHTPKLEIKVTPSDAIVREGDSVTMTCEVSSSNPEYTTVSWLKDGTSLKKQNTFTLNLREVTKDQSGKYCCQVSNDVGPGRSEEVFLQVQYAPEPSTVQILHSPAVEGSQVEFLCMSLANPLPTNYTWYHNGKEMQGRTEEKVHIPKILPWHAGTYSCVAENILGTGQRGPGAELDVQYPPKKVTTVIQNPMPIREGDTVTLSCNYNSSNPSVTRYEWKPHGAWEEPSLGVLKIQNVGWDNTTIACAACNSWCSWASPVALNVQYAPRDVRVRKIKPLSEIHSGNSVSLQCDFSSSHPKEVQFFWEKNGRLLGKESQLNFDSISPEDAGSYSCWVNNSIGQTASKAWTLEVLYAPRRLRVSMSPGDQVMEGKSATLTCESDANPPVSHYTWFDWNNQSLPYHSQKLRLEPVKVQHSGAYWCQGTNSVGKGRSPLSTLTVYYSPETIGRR

Assay [2] has the same target. The assay is described as follows: The sheet does not state the method. The column 'KD (nM)' stands beside the confocal data, and the target form is taken from FIGURE 18. FIGURE 18 prints 0.25 for this clone. How it is done:
as §1, §2

B1: VM1006 (antibody, V domains shown)
VH: QVQLVQSGAEVKKPGASVKVSCKASGYVFTSYWLHWIRQSPSRGLEWLGYINPRNDYTEYNRIFKGRFVFSLDTSVSTAYLQICSLKAEDTAVYYCARRGITTFYWGQG
VL: DIQMTQSPSSLSASVGDRVTITCKSSQSVLYSAVEKNYLAWYQQKPGKAPKLLIYWASTRERGIPDRFSGSGSGTDFTLTISRLEPEDFAVYYCKQYLSSWTFGQG
notes: Humanized antibody with human constant region; also called anti-CD22 Mab clone VM1006
In the case of B1, the Kd in assay [1] is 2.7 nM.

B2: VM1011 (antibody, V domains shown)
VH: QVQLQESGPGLVKPSQTLSLTCTVSGYVFTSYWLHWIRQPPGKGLEWIGYINPRNDYTEYNRIFKGRVTITADKSTSTAYMELSSLRSEDTAVYYCARRGITTFYWGQG
VL: EIVLTQSPATLSLSPGERATLSCKSSQSVLYSAVEKNYLAWYQQKPGQAPRLLIYWASTRERGIPDRFSGSGSGTDFTLTISRLEPEDFAVYYCKQYLSSWTFGQG
notes: Humanized antibody with human constant region; also called anti-CD22 Mab clone VM1011
B2: the Kd in assay [2] was determined as 0.26 nM.
